Molecular target: full-length single chain (FLSC) gp120-CD4 chimeric polypeptide (HIV-1 BaL; human)
Test: flow cytometry on L1.2/X4 cells

B1: CXCR4 (receptor)
chain: MEGISIYTSDNYTEEMGSGDYDSMKEPCFREENANFNKIFLPTIYSIIFLTGIVGNGLVILVMGYQKKLRSMTDKYRLHLSVADLLFVITLPFWAVDAVANWYFGNFLCKAVHVIYTVNLYSSVLILAFISLDRYLAIVHATNSQRPRKLLAEKVVYVGVWIPALLLTIPDFIFANVSEADDRYICDRFYPNDLWVVVFQFQHIMVGLILPGIVILSCYCIIISKLSHSKGHQKRKALKTTVILILAFFACWLPYYIGISIDSFILLEIIKQGCEFENTVHKWISITEALAFFHCCLNPILYAFLGAKFKTSAQHALTSVSRGSSLKILSKGKRGGHSSVSTESESSSFHSS
notes: whole, on cells; also called X4; L1.2/X4 cells
B1: no binding.
